The assay deals with S. epidermidis Csm3 (SeCsm3) in the Cas10–Csm effector complex (S. epidermidis RP62a). Description: cryo-EM structure.

Take “S. epidermidis Csm3 (SeCsm3) in the Cas10–Csm effector complex (natural protein)”: the stoichiometry N (in general, a count of units in the complex or per binding partner) came to 5.

The record behind these values is publication PMC6468305.
